The text below walks through data of patent publication US20260209761, “RNA-GUIDED ENDONUCLEASE SYSTEM AND USE THEREOF IN GENE EDITING” (HARBIN INSTITUTE OF TECHNOLOGY, published 2026).

The series has as its target T1, FbRAD1/ISFba1 (RHS75625.1) (Firmicutes bacterium AM43-11BH).
T1 chain: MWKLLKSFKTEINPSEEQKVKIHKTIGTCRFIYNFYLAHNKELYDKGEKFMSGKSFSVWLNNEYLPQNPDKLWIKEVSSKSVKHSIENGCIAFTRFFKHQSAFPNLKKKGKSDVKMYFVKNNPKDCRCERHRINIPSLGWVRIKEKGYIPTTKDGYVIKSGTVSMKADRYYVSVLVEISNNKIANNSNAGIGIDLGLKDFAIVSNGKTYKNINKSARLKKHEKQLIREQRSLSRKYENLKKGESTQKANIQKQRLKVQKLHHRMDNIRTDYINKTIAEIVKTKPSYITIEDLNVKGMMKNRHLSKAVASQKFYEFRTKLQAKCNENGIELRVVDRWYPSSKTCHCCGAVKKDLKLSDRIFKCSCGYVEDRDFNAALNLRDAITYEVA
The series can be described thus: co-purified RNA, degraded by RNase not DNase; about 180 nt; RNA-seq. Particulars: tags: GST (cleaved by PreScission), C-terminal 6His per expression cassette; stem loop, long hairpin with inner loop and pseudoknot (predicted).

B1: FbRAD1 RAGATH-18-associated RNA (ssRNA)
RNA: CUAAAACGCAAACGUAAGUAUGUACCGAAGGCUAUUUUCGGGAAUUUACGACUAUGGAGUGUACAAGAACUUGUGAGUAGAUAUGAUUUCGGUCAAUCCAAAGCAUACACGAUGAAAUAGUAAGUAAUGUUCGUGAGAACUUACAUUAUCUCGAUGUGAGCAUAUUUAAUCACAUUUUGAGUGGCAG
Turning to B1, the binding result is “binds”.
